Numbering of substitutions follows the chain as printed.

The record followed here is patent US5962294A, “Compositions and methods for the identification and synthesis of sialyltransferases” (The Regents of the University of California, priority 1993, dated 1999).

One series addresses T1, ST3 (Homo sapiens, UniProt Q11206).
T1 construct: A truncated form of ST3, lacking the first 39 amino acids of the long-form open reading frame; made in house; host or cells: COS-1 (concentrated culture medium)
T1 sequence (Q11206 41-333): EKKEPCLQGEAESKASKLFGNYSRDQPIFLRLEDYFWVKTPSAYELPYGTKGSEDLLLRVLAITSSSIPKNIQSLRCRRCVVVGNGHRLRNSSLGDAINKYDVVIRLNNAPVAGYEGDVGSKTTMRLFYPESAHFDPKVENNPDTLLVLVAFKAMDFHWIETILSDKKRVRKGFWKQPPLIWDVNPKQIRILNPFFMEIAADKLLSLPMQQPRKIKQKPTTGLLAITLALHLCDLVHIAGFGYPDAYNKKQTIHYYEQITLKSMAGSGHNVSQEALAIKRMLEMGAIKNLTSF
In words: Acceptor specificity of soluble ST3 (AZ3, concentrated COS-1 media). It counts as biochemical.

Another series has as its target T2, α2,3-N sialyltransferase (Rattus norvegicus, UniProt Q02734).
T2 construct: made in house; host or cells: COS-1 (concentrated culture medium, plasmid pBD122)
T2 sequence (Q02734 29-374 limits assumed): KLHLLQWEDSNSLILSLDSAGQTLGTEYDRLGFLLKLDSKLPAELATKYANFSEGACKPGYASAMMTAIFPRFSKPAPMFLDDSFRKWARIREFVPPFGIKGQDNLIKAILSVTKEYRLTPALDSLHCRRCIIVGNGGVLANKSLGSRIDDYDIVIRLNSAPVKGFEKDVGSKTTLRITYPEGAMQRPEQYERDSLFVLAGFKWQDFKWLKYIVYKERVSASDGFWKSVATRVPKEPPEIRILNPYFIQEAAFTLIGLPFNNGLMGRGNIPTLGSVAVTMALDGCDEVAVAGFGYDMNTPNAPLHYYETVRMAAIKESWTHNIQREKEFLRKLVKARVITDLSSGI
In words: Sialyltransferase assay of soluble rat α2,3-N secreted from COS-1 cells (pBD122). It counts as biochemical. How it is done:
In order to produce a soluble form of the sialyltransferase for enzymatic characterization, a fusion protein containing the catalytic domain of the enzyme and the insulin cleavable signal sequence was constructed in the mammalian expression vector pSVL (Pharmacia). […] PCR reactions were carried out as described above with annealing temperature at 55° C.

A further series concerns the target T3, ST3N (Rattus norvegicus, UniProt Q02734).
T3 sequence (Q02734 29-374 limits assumed): T2 sequence (Q02734 29-374 limits assumed)
In words: Acceptor specificity of ST3N (Table 4). To be noted: acceptor 0.2 mM.

Another series has as its target T4, human ST3N (Homo sapiens, UniProt Q11203).
T4 sequence (Q11203 62-375): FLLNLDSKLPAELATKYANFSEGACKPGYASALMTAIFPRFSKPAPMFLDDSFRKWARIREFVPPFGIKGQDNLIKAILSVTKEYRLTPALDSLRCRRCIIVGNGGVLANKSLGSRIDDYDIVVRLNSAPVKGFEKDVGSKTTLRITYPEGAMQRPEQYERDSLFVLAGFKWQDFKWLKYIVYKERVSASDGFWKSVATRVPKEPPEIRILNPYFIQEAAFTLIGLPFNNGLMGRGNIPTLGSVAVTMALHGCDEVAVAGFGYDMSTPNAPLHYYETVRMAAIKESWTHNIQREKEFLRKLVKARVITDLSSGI
In words: Acceptor specificity of soluble human ST3N (protein A fusion from COS-1 cells, on IgG Sepharose). The settings on record: acceptor 0.2 mM; relative to LNT.

A further series deals with T5, rat ST3N (Rattus norvegicus, UniProt Q02734).
T5 sequence (Q02734 29-374 limits assumed): T2 sequence (Q02734 29-374 limits assumed)
In words: Acceptor specificity of soluble rat ST3N fusion protein (Table 3). To be noted: acceptor 0.2 mM; relative to LNT.

The target in a further series is T6, ST3O (Sus scrofa, UniProt Q02745).
T6 sequence (Q02745 28-343 limits assumed): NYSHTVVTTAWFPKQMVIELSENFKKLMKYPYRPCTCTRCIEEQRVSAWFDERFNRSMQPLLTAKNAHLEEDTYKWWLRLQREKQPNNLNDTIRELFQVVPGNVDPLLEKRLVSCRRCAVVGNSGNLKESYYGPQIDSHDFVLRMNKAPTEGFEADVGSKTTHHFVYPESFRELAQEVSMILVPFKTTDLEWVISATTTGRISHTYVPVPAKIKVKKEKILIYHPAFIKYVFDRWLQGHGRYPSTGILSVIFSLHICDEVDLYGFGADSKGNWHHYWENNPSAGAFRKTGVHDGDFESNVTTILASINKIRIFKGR
In words: Acceptor specificity of ST3O (Table 4). To be noted: acceptor 0.2 mM.

Series [1] has as its target T7, (Sus scrofa, UniProt Q02745).
T7 sequence (Q02745 28-343 limits assumed): T6 sequence (Q02745 28-343 limits assumed)
In words: Sialyltransferase activity in media of COS-1 cells transfected with sp-ST. The settings on record: 48 hours post-transfection, media concentrated.

As to “Asialo-α1 -acid glycoprotein: glycoprotein acceptor (Galβ1,4GlcNAc-R)”, in the series with ST3, the “acceptor substrate for ST3 enzyme (in words)” value was “sialic acid was incorporated”. Also, in the series with α2,3-N sialyltransferase, the “acceptor utilisation by secreted α2,3-N enzyme” value was “capable of sialylating”. For the same molecule, in the series with ST3N, the “Relative rate (%) ST3N” value was determined as 9%. Besides, the “Relative activity (%) Human” value with human ST3N worked out at 14%. Moreover, in the series with rat ST3N, the “Relative activity (%) Rat” value was 9%. The “Relative rate (%) ST30” value with ST3O was found to be 0%.

B1: sp-ST: fusion of insulin signal sequence, 9 linker amino acids and the catalytic domain of α2,3-0 sialyltransferase (protein)
chain: T6 sequence (Q02745 28-343 limits assumed) with R201T
As for B1, the “sialyltransferase activity in media” value in series [1] was “contained milliunits/ml of the sialyltransferase”.
